Like-named read-outs stand apart in the source and are kept apart here. Values belong to the binder of their own block, whether it stands above or below them.
B3: MBP-Chs4-SLR (220-610) (domain or fragment, S. cerevisiae, UniProt P34226 220-610, looked up)
chain: QYMLQTALTIESSNALVQDSDKEGNVSQSDLKLQFLKEAQSYLKKLSIKGYSDAQYLLADGYSSGAFGKIENKEAFVLFQAAAKHGHIESAYRASHCLEEGLGTTRDSRKSVNFLKFAASRNHPSAMYKLGLYSFYGRMGLPTDVNTKLNGVKWLSRAAARANELTAAAPYELAKIYHEGFLDVVIPDEKYAMELYIQAASLGHVPSATLLAQIYETGNDTVGQDTSLSVHYYTQAALKGDSVAMLGLCAWYLLGAEPAFEKDENEAFQWALRAANAGLPKAQFTLGYFYEHGKGCDRNMEYAWKWYEKAAGNEDKRAINKLRSRDGGLASIGKKQHKKNKSISTLNLFSTVDSQTSNVGSNSRVSSKSETFFTGNPKRDREPQGLQINMN

Columns and labels:
Test in all cases: pull-down
MBP-Chs4-SLR (220-610) = biological target: B3
GST-Chs4-SLR (220-610) [1] = biological target: T1, GST-Chs4-SLR (220-610) (S. cerevisiae, UniProt P34226 220-610)
T1 sequence (looked up): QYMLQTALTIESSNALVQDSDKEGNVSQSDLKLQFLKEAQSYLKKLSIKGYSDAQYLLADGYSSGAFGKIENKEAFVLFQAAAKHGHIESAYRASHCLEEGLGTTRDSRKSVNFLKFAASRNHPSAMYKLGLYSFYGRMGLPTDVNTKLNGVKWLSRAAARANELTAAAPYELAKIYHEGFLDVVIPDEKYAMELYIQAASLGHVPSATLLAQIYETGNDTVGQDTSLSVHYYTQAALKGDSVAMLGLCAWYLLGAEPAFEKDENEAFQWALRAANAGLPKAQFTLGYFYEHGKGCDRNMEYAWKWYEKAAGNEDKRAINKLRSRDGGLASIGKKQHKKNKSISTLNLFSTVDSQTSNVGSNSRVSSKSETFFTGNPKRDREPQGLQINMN

GST-Chs4-SLR (220-610) [2] = biological target: T1, GST-Chs4-SLR (220-610); remark: listed apart in the source
His6-Chs3-MID (477-1028) = biological target: T2, His6-Chs3-MID (477-1028) (S. cerevisiae, UniProt P29465 477-1028)
T2 sequence (looked up): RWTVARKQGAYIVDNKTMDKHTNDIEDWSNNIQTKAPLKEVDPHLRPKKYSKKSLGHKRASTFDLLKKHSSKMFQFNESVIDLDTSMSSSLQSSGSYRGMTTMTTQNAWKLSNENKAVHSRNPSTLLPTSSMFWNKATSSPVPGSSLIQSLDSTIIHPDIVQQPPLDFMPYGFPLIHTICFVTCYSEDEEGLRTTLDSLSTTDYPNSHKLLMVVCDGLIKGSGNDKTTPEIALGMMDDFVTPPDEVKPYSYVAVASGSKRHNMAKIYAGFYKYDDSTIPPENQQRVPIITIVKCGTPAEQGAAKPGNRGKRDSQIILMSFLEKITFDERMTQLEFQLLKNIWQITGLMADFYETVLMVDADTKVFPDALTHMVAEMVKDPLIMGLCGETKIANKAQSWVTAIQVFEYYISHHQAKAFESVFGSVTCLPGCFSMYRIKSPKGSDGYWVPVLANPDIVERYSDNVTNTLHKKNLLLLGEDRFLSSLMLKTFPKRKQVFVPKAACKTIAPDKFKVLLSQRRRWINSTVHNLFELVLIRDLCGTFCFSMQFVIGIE

B1: His6-Hof1-N-term (domain or fragment, S. cerevisiae, UniProt Q05080 1-340, looked up)
chain: MSYSYEACFWDPNDNGVNILLGHISQGIRSCDSMILFFKQRSELEKDYARRLGAITGKLDKDIGTNMDYGKLNETFNVVLSVEKARAQSHSKQSEILFRQIYTDTKAFAANLQARYTTLSGKIERLRMDKFNKKKGCEVLQKKLQDAQIRFRDLQLNENNMIGAKRVEHNKRELLKWESNSQEYKVQLDVLKQEYKASQKFWIHEWAQLSCELQEMENARISFLQSKLQQFATSSMETYILEQTKMDMLTNHLNSFTAADEISTFSKENGTGRLKHKTSKGDMNSSANWAQMSSISTTSKKTESYMDNIRKLSSQLKETENKRKLASIDKYEKPLPSPEV
binding result (MBP-Chs4-SLR (220-610)): binds
binding result (GST-Chs4-SLR (220-610) [1]): binds

Binder: B3
binding result (His6-Chs3-MID (477-1028)): binds

Now from value to binder:

binding result (GST-Chs4-SLR (220-610) [2]): binds
B2: MBP-Hof1-N-term (1-340) (domain or fragment, S. cerevisiae, UniProt Q05080 1-340, looked up)
chain: MSYSYEACFWDPNDNGVNILLGHISQGIRSCDSMILFFKQRSELEKDYARRLGAITGKLDKDIGTNMDYGKLNETFNVVLSVEKARAQSHSKQSEILFRQIYTDTKAFAANLQARYTTLSGKIERLRMDKFNKKKGCEVLQKKLQDAQIRFRDLQLNENNMIGAKRVEHNKRELLKWESNSQEYKVQLDVLKQEYKASQKFWIHEWAQLSCELQEMENARISFLQSKLQQFATSSMETYILEQTKMDMLTNHLNSFTAADEISTFSKENGTGRLKHKTSKGDMNSSANWAQMSSISTTSKKTESYMDNIRKLSSQLKETENKRKLASIDKYEKPLPSPEV

binding result (GST-Chs4-SLR (220-610) [2]): binds
B4: MBP-Hof1-F-BAR (1-275) (domain or fragment, S. cerevisiae, UniProt Q05080 1-275, looked up)
chain: MSYSYEACFWDPNDNGVNILLGHISQGIRSCDSMILFFKQRSELEKDYARRLGAITGKLDKDIGTNMDYGKLNETFNVVLSVEKARAQSHSKQSEILFRQIYTDTKAFAANLQARYTTLSGKIERLRMDKFNKKKGCEVLQKKLQDAQIRFRDLQLNENNMIGAKRVEHNKRELLKWESNSQEYKVQLDVLKQEYKASQKFWIHEWAQLSCELQEMENARISFLQSKLQQFATSSMETYILEQTKMDMLTNHLNSFTAADEISTFSKENGTGRLK

Reference: publication PMC5658023 (Current biology : CB, 2017)
